Consider 1 molecule from paper PMC12581312, “Lung endothelial PEAR1 induces tumor cell dormancy” (Molecular Cancer, 2025).

This test has as its target T1, Human recombinant LOXL2 (lysyl oxidase like 2) (human, UniProt Q9Y4K0 26-774).
T1 construct: lysyl oxidase like 2 (LOXL2), human, recombinant; source: bought: R&D Systems (catalog #2639-AO-010)
T1 sequence (looked up): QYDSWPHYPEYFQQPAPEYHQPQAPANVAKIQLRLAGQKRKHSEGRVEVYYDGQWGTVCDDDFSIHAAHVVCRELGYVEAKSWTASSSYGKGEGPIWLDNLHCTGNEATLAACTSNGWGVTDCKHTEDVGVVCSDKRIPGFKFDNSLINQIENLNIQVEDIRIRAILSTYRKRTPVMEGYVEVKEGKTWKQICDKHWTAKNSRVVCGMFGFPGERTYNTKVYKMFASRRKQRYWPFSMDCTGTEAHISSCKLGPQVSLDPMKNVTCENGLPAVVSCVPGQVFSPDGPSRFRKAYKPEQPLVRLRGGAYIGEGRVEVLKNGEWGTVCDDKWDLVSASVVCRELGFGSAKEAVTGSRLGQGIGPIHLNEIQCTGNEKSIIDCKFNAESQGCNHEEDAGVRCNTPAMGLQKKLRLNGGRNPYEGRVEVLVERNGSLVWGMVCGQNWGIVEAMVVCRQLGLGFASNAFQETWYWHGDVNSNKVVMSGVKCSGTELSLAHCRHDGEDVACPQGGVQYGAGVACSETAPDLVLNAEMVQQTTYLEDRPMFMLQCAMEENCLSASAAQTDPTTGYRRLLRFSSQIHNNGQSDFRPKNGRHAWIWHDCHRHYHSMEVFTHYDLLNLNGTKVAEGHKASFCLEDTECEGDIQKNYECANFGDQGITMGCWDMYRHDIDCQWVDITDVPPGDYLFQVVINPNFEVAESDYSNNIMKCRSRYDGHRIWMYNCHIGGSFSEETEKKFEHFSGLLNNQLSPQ
Description: pull-down; recombinant human PEAR1 (100 nM) immobilised on Ni-NTA magnetic beads, incubated with 100 nM recombinant human CTSD, SEMA6D or LOXL2 in 50 mM NaH2PO4, 300 mM NaCl, 20 mM imidazole, pH 8.0, 1 h at room temperature; control Ni-NTA beads; immunoblotting. As to conditions: both partners purified. On the technique in general: In western blotting, separated proteins are transferred to a membrane and probed.

B1: Human recombinant PEAR1 extracellular part (platelet and endothelial aggregation receptor 1), His-tagged (domain or fragment, UniProt Q5VY43 21-755, looked up)
chain: LNPSDPNTCSFWESFTTTTKESHSRPFSLLPSEPCERPWEGPHTCPQPTVVYRTVYRQVVKTDHRQRLQCCHGFYESRGFCVPLCAQECVHGRCVAPNQCQCVPGWRGDDCSSECAPGMWGPQCDKPCSCGNNSSCDPKSGVCSCPSGLQPPNCLQPCTPGYYGPACQFRCQCHGAPCDPQTGACFCPAERTGPSCDVSCSQGTSGFFCPSTHSCQNGGVFQTPQGSCSCPPGWMGTICSLPCPEGFHGPNCSQECRCHNGGLCDRFTGQCRCAPGYTGDRCREECPVGRFGQDCAETCDCAPDARCFPANGACLCEHGFTGDRCTDRLCPDGFYGLSCQAPCTCDREHSLSCHPMNGECSCLPGWAGLHCNESCPQDTHGPGCQEHCLCLHGGVCQATSGLCQCAPGYTGPHCASLCPPDTYGVNCSARCSCENAIACSPIDGECVCKEGWQRGNCSVPCPPGTWGFSCNASCQCAHEAVCSPQTGACTCTPGWHGAHCQLPCPKGQFGEGCASRCDCDHSDGCDPVHGRCQCQAGWMGARCHLSCPEGLWGVNCSNTCTCKNGGTCLPENGNCVCAPGFRGPSCQRSCQPGRYGKRCVPCKCANHSFCHPSNGTCYCLAGWTGPDCSQPCPPGHWGENCAQTCQCHHGGTCHPQDGSCICPLGWTGHHCLEGCPLGTFGANCSQPCQCGPGEKCHPETGACVCPPGHSGAPCRIGIQEPFTVMPTTPVAYNSL
notes: platelet and endothelial aggregation receptor 1 (PEAR1), human, extracellular part; Held on Ni-NTA magnetic agarose beads by its His tag in the pull-downs; also called rhPEAR1; PEAR1 agarose; source: bought: R&D Systems (catalog #4527-PR-050)
On to B1, for which the binding result is reported as “binds”.
